The values that follow come from the RNAGym collection of RNA variant scans (doi:10.7554/elife.90254).

B1: LINE1-full (parent)
chain: UACGUAGGUGGUUUUCCCCUGAUAGUGCUAAGGGGGCCUGGAAGUUUGGACUGGGCAGAGCUCAACACAGCGUGGCAAAGUGGCUGUGGCUAGACUGCCUCUCUGGAUUCCUCGUCACUCAGCAGGGCAUCUCUGAGAGAAAUGCC

In this data set the parent is B1. Nature of the data set: self-cleavage, relative activity (ratio to wild type); higher = more cleavage; in vitro, sequencing; the parent is a self-cleaving ribozyme.
On to A77G G137A, for which the self-cleavage amounted to 2.66.

On to A77U C90U, for which the self-cleavage was 0.03.

For the variant A79U G137A, the self-cleavage was determined as 1.87.

Take A77U G97U: the self-cleavage came out at 0.09.

A77U G97A: the self-cleavage is 0.07.

For the variant A79U G135C, the self-cleavage was 2.76.

Consider A77U G114A, for which the self-cleavage came to 1.65.

On to A79G A136U, for which the self-cleavage was found to be 0.91.

For the variant A79U U112A, the self-cleavage came out at 1.97.

On to A77G A138U, for which the self-cleavage was 2.56.

Consider G80A U96C, for which the self-cleavage stood at 0.18.

On to U81A A117G, for which the self-cleavage turned out to be 2.29.

Regarding U81A A117U, the self-cleavage was determined as 1.94.

In the case of A78G U112C, the self-cleavage was 1.24.

A78G U112A: the self-cleavage amounted to 0.7.

In the case of U81A, the self-cleavage stood at 1.89.

For A78G A117U, the self-cleavage stood at 1.6.

For A78G A117C, the self-cleavage came out at 1.69.

In the case of A79G G86A, the self-cleavage was 0.09.

A78G A136U: the self-cleavage came to 1.79.

Consider A78G A136G, for which the self-cleavage turned out to be 1.45.

As for A78U U112C, the self-cleavage was found to be 1.91.

In the case of A79G C120G, the self-cleavage came out at 1.08.

With A79G C120U, the self-cleavage is 1.26.

As to A79G U134A, the self-cleavage was 1.07.

In the case of A77G U104G, the self-cleavage amounted to 1.87.

Take A79G G144A: the self-cleavage was 1.5.

Take A79U U87A: the self-cleavage turned out to be 0.05.

With A78G C113U, the self-cleavage was determined as 0.93.

Regarding C76U U102C, the self-cleavage was found to be 0.59.

Take A77G U85G: the self-cleavage amounted to 0.2.

Take A77G U85C: the self-cleavage came to 0.25.

For the variant A77G U85A, the self-cleavage worked out at 0.06.

In the case of A79U U102C, the self-cleavage was 1.04.

In the case of A77G C99U, the self-cleavage amounted to 1.01.

Consider A77U C146A, for which the self-cleavage was 1.23.

As for G80A A124G, the self-cleavage amounted to 1.

With A77U G126A, the self-cleavage came to 1.46.

Regarding A78G U119A, the self-cleavage is 1.33.

With A78G U119C, the self-cleavage is 1.55.

With A78U G114A, the self-cleavage came to 1.75.

As to A78G U102A, the self-cleavage was found to be 1.24.

For the variant A78G A142G, the self-cleavage was found to be 1.21.

As for A79U A121G, the self-cleavage came to 1.58.

Turning to A77U G93A, the self-cleavage is 0.02.

In the case of A79G U91C, the self-cleavage was 0.45.

Regarding A79G U119A, the self-cleavage stood at 1.06.

In the case of G80A A107G, the self-cleavage turned out to be 2.12.

For the variant A77U U108C, the self-cleavage is 1.57.

Regarding A79C U96C, the self-cleavage amounted to 0.11.

Turning to A77G A117U, the self-cleavage is 2.58.

In the case of A79G C113U, the self-cleavage worked out at 0.75.

Consider A78C U96A, for which the self-cleavage stood at 0.14.

On to A79U U132A, for which the self-cleavage was 1.83.

As for A79U U132C, the self-cleavage is 2.24.

For A79G U115C, the self-cleavage was 1.32.

In the case of A77C U102C, the self-cleavage came out at 0.

Consider C76U A142C, for which the self-cleavage amounted to 0.92.

A79G A121G: the self-cleavage worked out at 1.21.

Consider A79G U130G, for which the self-cleavage was determined as 2.51.

In the case of A79G U130C, the self-cleavage amounted to 1.45.

In the case of A79G G93A, the self-cleavage was 0.04.

As to A79G G93U, the self-cleavage was 0.06.

Consider A78G C116A, for which the self-cleavage worked out at 0.87.

With A79G A124U, the self-cleavage was 1.19.

With A78U G89A, the self-cleavage is 0.07.

For the variant A78U G89C, the self-cleavage was 0.08.

For the variant A77G C145A, the self-cleavage came out at 2.43.

For A77G C145U, the self-cleavage worked out at 2.12.

With A77G A140U, the self-cleavage is 2.21.

As for A77G A140G, the self-cleavage stood at 1.7.

For G80U G144A, the self-cleavage was 1.57.

As to A78G U96C, the self-cleavage was determined as 0.1.

With G80A A140U, the self-cleavage is 1.58.

For the variant A79G C133A, the self-cleavage came to 1.12.

On to A77G G80U, for which the self-cleavage was determined as 2.02.

Regarding A77G G80A, the self-cleavage was 2.17.

For A79G U100C, the self-cleavage was found to be 1.46.

Consider A78G C145U, for which the self-cleavage came out at 1.28.

Consider A78G U134C, for which the self-cleavage stood at 1.49.

On to A79U A124G, for which the self-cleavage stood at 0.87.

Turning to A79U A124U, the self-cleavage was 0.67.

For U81A A141G, the self-cleavage came out at 1.85.

For the variant A77C A142G, the self-cleavage was 1.34.

G80A A117G: the self-cleavage stood at 2.22.

Take G80U U130C: the self-cleavage turned out to be 0.

Consider A78G C111U, for which the self-cleavage was 0.93.

As for A78C C90U, the self-cleavage came to 0.03.

As for A77U U143A, the self-cleavage is 1.18.

Regarding A79G G88A, the self-cleavage came out at 0.03.

A77U C84U: the self-cleavage was determined as 0.08.

As for A78U U130A, the self-cleavage came out at 2.96.

Turning to A78C U119C, the self-cleavage stood at 2.95.

On to A78G U85C, for which the self-cleavage was found to be 0.11.

For the variant A78G U85G, the self-cleavage was found to be 0.18.

For A78G G106U, the self-cleavage was determined as 0.66.

As to A79U A94U, the self-cleavage came out at 0.25.

Take A79U A94G: the self-cleavage came out at 0.26.

Turning to A77C A136G, the self-cleavage turned out to be 1.06.

As to A77G U134C, the self-cleavage is 2.54.

For A79G U102G, the self-cleavage is 0.49.

As for A79G G106U, the self-cleavage was 1.48.

Take A79U G89C: the self-cleavage is 0.02.

Regarding A79U G89U, the self-cleavage is 0.03.

Consider A77G G139A, for which the self-cleavage came to 1.52.

Turning to A78G G97U, the self-cleavage was 0.03.

Consider A78G G97A, for which the self-cleavage turned out to be 0.11.

As for A79G G97A, the self-cleavage is 0.08.

Take A77G U143C: the self-cleavage was 2.2.

Take A77G U143G: the self-cleavage turned out to be 2.99.

Turning to A77G U143A, the self-cleavage amounted to 1.85.

In the case of C76U C95U, the self-cleavage came out at 0.41.

For the variant A78G U143A, the self-cleavage was found to be 1.11.

As for A78G U143C, the self-cleavage was 1.18.

For A77U U130C, the self-cleavage is 1.56.

As to A77U U130A, the self-cleavage is 1.01.

For the variant A78U U81C, the self-cleavage is 1.6.

On to G80U A141U, for which the self-cleavage is 1.68.

As to G80U A141G, the self-cleavage was 1.1.

For the variant A77U U109A, the self-cleavage came to 1.68.

In the case of A77U U109G, the self-cleavage amounted to 0.61.

With G80C U96G, the self-cleavage was found to be 0.09.

With A78G G86U, the self-cleavage is 0.08.

Take A78G G86A: the self-cleavage came out at 0.05.

With A78U U91A, the self-cleavage turned out to be 0.85.

Take A78U U91C: the self-cleavage is 1.13.

Turning to A77C U130C, the self-cleavage is 1.89.

With A78G A107G, the self-cleavage was 1.26.

As to A78G A107U, the self-cleavage turned out to be 1.26.

In the case of A78G U115A, the self-cleavage worked out at 1.12.

For the variant A77U U104A, the self-cleavage is 0.58.

A77G A78G: the self-cleavage came out at 1.68.

Regarding A78G U81A, the self-cleavage stood at 0.47.

Turning to C76U G105C, the self-cleavage came out at 2.51.

Regarding A77G G127A, the self-cleavage came to 2.11.

As to A79U U130C, the self-cleavage was 2.63.

For the variant A78U U87G, the self-cleavage stood at 0.23.

For A79U A142G, the self-cleavage came out at 2.33.

In the case of C76U C99U, the self-cleavage turned out to be 0.99.

As for A79U A136G, the self-cleavage was determined as 1.96.

As for A79U A136U, the self-cleavage came to 2.6.

Take A79G A117U: the self-cleavage was 1.06.

Take A78G U91A: the self-cleavage is 0.38.

Consider A77G G135U, for which the self-cleavage stood at 0.63.

With A77G U91C, the self-cleavage was 0.

Take A77C U112C: the self-cleavage amounted to 1.84.

As to A77U A124G, the self-cleavage came to 0.79.

A77U U81C: the self-cleavage was 1.47.

Turning to A78C A136G, the self-cleavage was 2.92.

As to A77C G114A, the self-cleavage came to 0.63.

As to A78U C110U, the self-cleavage was 1.28.

With G80A U104A, the self-cleavage was 1.86.

On to C76U A140G, for which the self-cleavage is 2.36.

In the case of C76U A140U, the self-cleavage is 2.07.

For the variant A79U U81C, the self-cleavage is 0.4.

With A77G G114A, the self-cleavage is 2.27.

Consider U81A A124C, for which the self-cleavage worked out at 2.45.

Take U81A A124G: the self-cleavage is 1.55.

For A78G C133U, the self-cleavage was determined as 1.27.

For A78G A79G, the self-cleavage was 1.14.

A77G G83U: the self-cleavage worked out at 1.28.

U81A A138G: the self-cleavage came out at 2.16.

Consider U81A A138C, for which the self-cleavage was determined as 2.3.

A78G G126U: the self-cleavage is 1.75.

For the variant A79G C95U, the self-cleavage was determined as 0.08.

For A77U A107G, the self-cleavage came to 1.29.

On to A77U A107C, for which the self-cleavage turned out to be 1.21.
